{"source": "paper PMC5157838", "about": "(Analytical chemistry, 2015)", "proteins": {"B1": {"name": "Glutamate dehydrogenase, purified from bovine liver (enzyme)", "chain": "not shown"}}, "target": "the molecule itself", "assay": "native MS", "note": "Where “and” joins values, the source holds several entries; their conditions need not be identical. Identical values can stand only once.", "data": [{"protein": "B1", "values": [{"measurement": "stoichiometry N", "result": "6 and 12"}]}]}
